{"source": "the DeepSol protein solubility set", "data": [{"experiment": "soluble on expression in E. coli; label from the status in PepcDB or PDB records", "values": [{"sequence": "ASMTGGQQMGRDPGMTVTSQVKPEDEMDNWGRLILDGVSYSDMVGARDRPKEITWFDYWMSLANEYEQEAERKVALGHDLSAGELLMSAALCAQYAQFLWFDERRQKGQARKVELYQKAAPLLSPPAERHELVVDGIPMPVYVRIPEGPGPHPAVIMLGGLESTKEESFQMENLVLDRGMATATFDGPGQGEMFEYKRIAGDYEKYTSAVVDLLTKLEAIRNDAIGVLGRSLGGNYALKSAACEPRLAACISWGGFSDLDYWDLETPLTKESWKYVSKVDTLEEARLHVHAALETRDVLSQIACPTYILHGVHDEVPLSFVDTVLELVPAEHLNLVVEKDGDHCCHNLGIRPRLEMADWLYDVLVAGKKVAPTMKGWPLEHHHHHH", "soluble on expression in E. coli": "soluble"}, {"sequence": "MTASHGQAAAIPTVTLNDDNTLPVVGIGVGELSDSEAERSVSAALEAGYRLIDTAAAYGNEAAVGRAIAASGIPRDEIYVTTKLATPDQGFTSSQAAARASLERLGLDYVDLYLIHWPGGDTSKYVDSWGGLMKVKEDGIARSIGVCNFGAEDLETIVSLTYFTPAVNQIELHPLLNQAALREVNAGYNIVTEAYGPLGVGRLLDHPAVTAIAEAHGRTAAQVLLRWSIQLGNVVISRSANPERIASNLDVFGFELTADEMETLNGLDDGTRFRPDPATYTGS", "soluble on expression in E. coli": "soluble"}, {"sequence": "MGSDKIHHHHHHMRTLKELERELQPRQHLWYFEYYTGNNVGLFMKMNRVIYSGQSDIQRIDIFENPDLGVVFALDGITMTTEKDEFMYHEMLAHVPMFLHPNPKKVLIIGGGDGGTLREVLKHDSVEKAILCEVDGLVIEAARKYLKQTSCGFDDPRAEIVIANGAEYVRKFKNEFDVIIIDSTDPTAGQGGHLFTEEFYQACYDALKEDGVFSAETEDPFYDIGWFKLAYRRISKVFPITRVYLGFMTTYPSGMWSYTFASKGIDPIKDFDPEKVRKFNKELKYYNEEVHVASFALPNFVKKELGLM", "soluble on expression in E. coli": "not soluble"}, {"sequence": "MWQLKKEQNVPIYRSIMEMIVQKIQTGELLPGEKIPSERKLAEYLSVNRSTVVHALDELVDLGWIVRKRGSGTIVNEGKWGVMMTPRTDWHRYLEQNVFKQVHPLVTEIELRAKQNLPTDLDMYTGELPLDLIPSFDFPALNWKQFLKEEAQDELGYLPLRKEIQAITATEYQLHLPSESLLLTSGAQQALFLVLQVLLRQGDSVAVEDPSFFYALPIFQAAGVRLFGVPMTEEGIDLEALEQTIRQHRIKMVMVNPSFQNPTGTVMPLRKREQLVKVCQTYQVPILEDDVFGQLSFIPKTEIPPLKKLDPDNVLYIGSLSKILGSTTKIGWLSAPASVTKQIAEARKMMDVSLSIFPQMLAKMAIEDPSFSEKITLLNKQVEQRATAVYQVFKSLSEWEVSPVKGGFYLWAHWRQGALKPEDWQVFLREGVLVAPSVAFSEKRGSIRLNCSRISPEEMPLFCERMVRITRQLSENRQTKIEQ", "soluble on expression in E. coli": "not soluble"}, {"sequence": "SASFVGTPLPESENISLYQSRVTVAELEMLASRFVGRTRVKVAFQAYWSQQREELLPNQQAPSSLIRHTERVLAGVFGASSAKLVLTSALQGRNMQLEEVATIVDEAS", "soluble on expression in E. coli": "not soluble"}, {"sequence": "MELSRGASAPDPDDVRPLKPCLLRRNHSRDQHGVAASSLEELRSKACELLAIDKSLTPITLVLAEDGTIVDDDDYFLCLPSNTKFVALACNEKWTYNDSDGGTAWVSQESFEADEPDSRAGVKWKNVARQLKEDLSSIILLSEEDLQALIDIPCAELAQELCQSCATVQGLQSTLQQVLDQREEARQSKQLLELYLQALEKEGNILSNQKESKAALSEELDAVDTGVGREMASEVLLRSQILTTLKEKPAPELSLSSQDLESVSKEDPKALAVALSWDIRKAETVQQACTTELALRLQQVQSLHSLRNLSARRSPLPGEPQRPKRAKRDSS", "soluble on expression in E. coli": "soluble"}, {"sequence": "MSLRILAIDTATEACSVALWNNGTINAHFELCPREHTQRILPMVQEILAASGASLNEIDALAFGRGPGSFTGVRIGIGIAQGLALGANLPMIGVSTLATMAQGAWRKTGATRVLAAIDARMGEVYWAEYQRDAQGVWQGEETEAVLKPERVGERLKQLSGEWATVGTGWSAWPDLAKECGLTLHDGEVSLPAAEDMLPIASQKLAAGETVAVEHAEPVYLRNEVAWKKLPGKEEGHHHHHH", "soluble on expression in E. coli": "soluble"}, {"sequence": "MKAMKSLGADLDKALGRLSGGLYIITAKKGDVSSAMLASWVNQASFKPLGFSIAVAKDRAIESLMQVGDRFVLNVLEEGNYQPLMRHFLKRFAPGADRFEGVKTQPAENGAPILGDALAYMECEVVSRMDCGDHWAVYSTVYAGRVSKSEALTAVHHRKVGNHYLEHHHHHH", "soluble on expression in E. coli": "soluble"}, {"sequence": "MLDFAAIDFETANAERTSVCSVGIIVVRGGQIVHRYYSLIRPEPDYYNYHNTRVHGLTAADTESARIFPDVWAEVEPLIAGLPLVAHNKPFDEGCLKAVFRMYRMDYPDYPFFCTLQAARRQLRHLSDHRLPTVAQCCGYTLAQHHQALADAEACAAIALKLL", "soluble on expression in E. coli": "not soluble"}]}]}
